Test results as given in patent publication US20220098240A1 (FUJIFILM, published 2022).
Bridge positions count the residues as written; N and C are the ends. Square brackets hold non-standard residues; d marks the D form. Ends that are not written are not given here. COCH2 = acetyl group that carries the bridge; Pen = CC(C)(S)[C@H](N)C(=O)O; hCys = N[C@@H](CCS)C(=O)O; Orn = NCCC[C@H](N)C(=O)O; Dab = NCC[C@H](N)C(=O)O; Dap = NC[C@H](N)C(=O)O

Experiments:
[1] = target: T1, human integrin αvβ5 (human, UniProt P06756 31-992; P18084 24-719); assay: SPR, Biacore 3000, peptide immobilised on CM5 chip, integrin 30-1000 nM flowed; grade B = dissociation constant more than 50 nM and 100 nM or less
T1 construct: soluble analyte in SPR at 30, 100, 300 and 1,000 nM in HEPES buffer with 5 mM magnesium chloride; heterodimer of an alpha and a beta chain
T1 sequence (P06756 31-992, chain 1 of 2): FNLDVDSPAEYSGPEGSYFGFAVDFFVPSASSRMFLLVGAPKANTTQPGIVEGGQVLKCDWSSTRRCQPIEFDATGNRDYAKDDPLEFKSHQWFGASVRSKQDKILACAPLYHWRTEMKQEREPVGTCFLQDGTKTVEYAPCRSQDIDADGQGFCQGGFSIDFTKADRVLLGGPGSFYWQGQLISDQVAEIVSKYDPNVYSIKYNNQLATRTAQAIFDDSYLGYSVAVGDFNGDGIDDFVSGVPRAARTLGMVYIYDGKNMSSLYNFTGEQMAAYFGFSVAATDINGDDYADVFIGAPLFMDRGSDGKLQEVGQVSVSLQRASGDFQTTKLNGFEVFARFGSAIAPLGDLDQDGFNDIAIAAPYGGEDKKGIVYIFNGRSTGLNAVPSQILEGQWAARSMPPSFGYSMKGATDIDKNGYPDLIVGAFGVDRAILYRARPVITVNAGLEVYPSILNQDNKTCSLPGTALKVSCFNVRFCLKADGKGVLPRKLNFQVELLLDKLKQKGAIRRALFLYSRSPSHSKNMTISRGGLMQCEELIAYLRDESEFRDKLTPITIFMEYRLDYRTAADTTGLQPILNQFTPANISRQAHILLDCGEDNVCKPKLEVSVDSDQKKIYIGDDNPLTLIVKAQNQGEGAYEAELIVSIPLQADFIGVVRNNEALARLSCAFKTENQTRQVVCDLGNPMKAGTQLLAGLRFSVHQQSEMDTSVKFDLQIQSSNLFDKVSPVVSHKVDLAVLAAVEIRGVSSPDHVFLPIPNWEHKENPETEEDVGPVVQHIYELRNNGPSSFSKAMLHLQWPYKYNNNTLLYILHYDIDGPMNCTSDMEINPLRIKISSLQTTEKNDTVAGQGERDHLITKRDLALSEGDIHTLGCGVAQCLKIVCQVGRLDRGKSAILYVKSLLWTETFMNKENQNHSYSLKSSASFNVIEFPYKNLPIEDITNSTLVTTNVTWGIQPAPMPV
T1 sequence (P18084 24-719, chain 2 of 2): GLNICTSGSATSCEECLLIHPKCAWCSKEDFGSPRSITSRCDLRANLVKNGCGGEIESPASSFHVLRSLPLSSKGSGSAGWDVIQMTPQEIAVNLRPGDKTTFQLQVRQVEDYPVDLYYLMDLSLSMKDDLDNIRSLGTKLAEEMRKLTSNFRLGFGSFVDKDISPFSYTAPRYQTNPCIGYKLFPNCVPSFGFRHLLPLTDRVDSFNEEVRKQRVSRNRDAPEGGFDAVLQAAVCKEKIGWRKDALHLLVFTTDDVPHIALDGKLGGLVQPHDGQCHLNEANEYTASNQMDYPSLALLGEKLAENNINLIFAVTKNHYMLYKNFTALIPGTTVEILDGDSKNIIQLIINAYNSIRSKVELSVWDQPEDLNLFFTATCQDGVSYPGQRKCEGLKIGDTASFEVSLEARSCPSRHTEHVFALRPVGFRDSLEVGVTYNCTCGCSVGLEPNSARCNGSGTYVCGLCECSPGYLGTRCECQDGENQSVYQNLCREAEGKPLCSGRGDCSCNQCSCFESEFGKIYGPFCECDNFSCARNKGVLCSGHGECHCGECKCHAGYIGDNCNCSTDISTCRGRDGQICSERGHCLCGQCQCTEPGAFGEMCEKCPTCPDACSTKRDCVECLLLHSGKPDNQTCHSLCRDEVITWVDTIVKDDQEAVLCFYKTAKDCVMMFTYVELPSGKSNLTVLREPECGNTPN
Method: (§1) However, only for the cyclic peptide 22, in which the number of lysine residues having an amino group as the immobilizing functional group was 1, the sample solution to be supplied to the sensor chip was set to 5,000 μL instead of 300 μL. Similarly, 70 μL of the mixed aqueous solution of 0.2 M EDC and 0.04 M NHS was added to another flow channel of the same sensor chip without immobilizing the sample, and then blocking treatment and washing treatment were carried out. Hereinafter, the obtained immobilization-treated sensor chip is referred to as an “immobilization-treated sensor chip A”.
(§2) After adding human integrin αvβ5 for 10 minutes at 25° C., which was diluted to 30 nM using a HEPES buffer solution to which magnesium chloride was added to 5 mM, in each flow channel of the immobilization-treated sensor chip A prepared in (1) above, the same HEPES buffer solution (containing 5 mM magnesium chloride) was allowed to flow as a running buffer for 30 minutes, and measurement was carried out with Biacore 3000.
(§3) Then, a regeneration treatment of removing human integrin αvβ5 was carried out by allowing a 0.5 M EDTA aqueous solution to flow through each flow channel for 10 minutes. Further, the above-described measurement process consisting of adding integrin for 10 minutes, allowing a running buffer to flow for 30 minutes, carrying out measurement with Biacore 3000, and carrying out regeneration treatment with 0.5 M EDTA aqueous solution was carried out in the same manner for 100 nM human integrin αvβ5, 300 nM human integrin αvβ5, and 1,000 nM human integrin αvβ5. Dissociation constant between the cyclic peptide and human integrin αvβ5 was calculated from the difference between the value measured by Biacore 3000 in the flow channel immobilized with the cyclic peptide and the value measured by Biacore 3000 in the flow channel unimmobilized with the cyclic peptide, in a case where each concentration of human integrin αvβ5 was allowed to flow, and the integrin binding property was evaluated according to the following evaluation standards. It is preferable that the evaluation result satisfies the evaluation standard A, B, or C.

[2] = target: T1, human integrin αvβ5; assay: SPR, Biacore 3000, peptide immobilised on CM5 chip, integrin 30-1000 nM flowed; grade A = dissociation constant 50 nM or less
Method: as §1, §2, §3

Row | Binder | dissociation constant [2] [nM] | dissociation constant (KD) [2] [nM] | further results
1 | {CH2CO}-I[hCys]RGDK(COCH2)P[hCys]KKK (thioether 2-6, N-8) [Cyclic peptide 31] |  |  | dissociation constant [1]: 50 to 100 nM
2 | A[hCys][hCys]RGDK(COCH2)FK(COCH2)KKK (thioether 2-9, 3-7) [Cyclic peptide 36] |  |  | dissociation constant [1]: 50 to 100 nM
3 | {CH2CO}-IK(COCH2)RGD[hCys]F[hCys]KKK (thioether 2-6, N-8) [Cyclic peptide 4] |  |  | dissociation constant (KD) [1]: 50 to 100 nM
4 | {CH2CO}-T[hCys]RGDK(COCH2)F[hCys]KKK (thioether 2-6, N-8) [Cyclic peptide 27] | < 50 |  | 
5 | {CH2CO}-I[Orn](COCH2)RGD[hCys]F[Pen]KKK (thioether 2-6, N-8) [Cyclic peptide 23] |  | < 50 | 
6 | KKK[hCys][hCys]RGDK(COCH2)FK(COCH2)A (thioether 4-11, 5-9) [Cyclic peptide 37] |  |  | dissociation constant [1]: 50 to 100 nM
7 | {CH2CO}-I[hCys]RGDK(COCH2)Y[hCys]KKK (thioether 2-6, N-8) [Cyclic peptide 32] |  |  | dissociation constant [1]: 50 to 100 nM
8 | {CH2CO}-I[hCys]RGDK(COCH2)F[hCys]K (thioether 2-6, N-8) [Cyclic peptide 22] |  | < 50 | 
9 | {CH2CO}-I[Dap](COCH2)RGDCF[hCys]KKK (thioether 2-6 via Ac; thioether N-8; not fully specified, bicyclic; all residues L; immobilised on CM5 chip through amino groups) [Cyclic peptide 14] |  | ≤ 50 | 
10 | {CH2CO}-I[hCys]RGD[Dap](COCH2)F[hCys]KKK (thioether 2-6, N-8) [Cyclic peptide 5] |  |  | dissociation constant (KD) [1]: 50 to 100 nM
11 | K[Dap]RGD[hCys]F[hCys]KKK (bridge N-8, 2-6; not fully specified (N-terminus, bridges); printed as K RGD- -F-(Hcy)-KKK) [Cyclic peptide 21] |  |  | dissociation constant (KD) [1]: 50 to 100 nM
12 | {CH2CO}-D[hCys]RGDK(COCH2)F[hCys]KKK (thioether 2-6, N-8) [Cyclic peptide 29] | < 50 |  | 
13 | {CH2CO}-D[hCys]RGDK(COCH2)F[hCys]AKKK (thioether 2-6, N-8) [Cyclic peptide 45] | < 50 |  | 
14 | {CH2CO}-E[Orn]RGD[hCys]F[Pen]KKK (thioether N-8; bridge 2-6; not fully specified (residue 2, bridges); printed as E RGD- -F-(Pen)-KKK) [Cyclic peptide 24] |  | < 50 | 
15 | {CH2CO}-E[hCys]RGDK(COCH2)F[hCys]AKKK (thioether 2-6, N-8) [Cyclic peptide 46] | < 50 |  | 
16 | {CH2CO}-I[hCys]RGDK(COCH2)FCKKK (thioether 2-6 via Ac; thioether N-8; not fully specified, bicyclic; all residues L; immobilised on CM5 chip through amino groups) [Cyclic peptide 17] |  | ≤ 50 | 
17 | {CH2CO}-Y[hCys]RGDK(COCH2)F[hCys]KKK (thioether 2-6, N-8) [Cyclic peptide 25] | < 50 |  | 
18 | XCRGDXFCKKK (not fully specified; thioether: I1 alpha-NH2 through acetyl to C8; thioether: C2 to K(acetyl)6, bicyclic; all residues L; immobilised on CM5 chip through amino groups) [Cyclic peptide 12] |  | ≤ 50 | 
19 | {CH2CO}-E[hCys]RGD[Orn](COCH2)F[hCys]KKK (thioether 2-6, N-8) [Cyclic peptide 43] | < 50 |  | 
20 | {CH2CO}-E[Orn](COCH2)RGD[hCys]F[hCys]KKK (thioether 2-6, N-8) [Cyclic peptide 40] | < 50 |  | 

Row | Binder | dissociation constant [2] [nM] | dissociation constant (KD) [2] [nM] | further results
21 | {CH2CO}-ICRGD[Dab](COCH2)F[hCys]KKK (thioether 2-6 via Ac; thioether N-8; not fully specified, bicyclic; all residues L; immobilised on CM5 chip through amino groups) [Cyclic peptide 20] |  | ≤ 50 | 
22 | {CH2CO}-V[hCys]RGDK(COCH2)F[hCys]AKKK (thioether 2-6, N-8) [Cyclic peptide 44] | < 50 |  | 
23 | {CH2CO}-D[hCys]RGD[Orn](COCH2)F[hCys]KKK (thioether 2-6, N-8) [Cyclic peptide 42] | < 50 |  | 
24 | XXRGDXFXKKK (not fully specified; thioether: L1 alpha-NH2 through acetyl to Hcy8; thioether: Hcy2 to K(acetyl)6) [Cyclic peptide 26] | < 50 |  | 
25 | {CH2CO}-I[hCys]RGDK(COCH2)F[hCys]AKKK (thioether 2-6, N-8) [Cyclic peptide 35] | < 50 |  | 
26 | {CH2CO}-I[Dap](COCH2)RGD[hCys]F[hCys]KKK (thioether 2-6, N-8) [Cyclic peptide 1] |  |  | dissociation constant (KD) [1]: 50 to 100 nM
27 | ACDCRGDCFCGKKK (disulfide 2-10, 4-8, bicyclic comparative peptide; all residues L; immobilised on CM5 chip through amino groups) [Cyclic peptide 49] | ≤ 50 |  | 
28 | {CH2CO}-I[Orn](COCH2)RGD[hCys]F[hCys]KKK (thioether 2-6, N-8) [Cyclic peptide 3] |  | < 50 | 
29 | {CH2CO}-ICRGDK(COCH2)F[hCys]KKK (thioether 2-6 via Ac; thioether N-8; not fully specified, bicyclic; all residues L; immobilised on CM5 chip through amino groups) [Cyclic peptide 18] |  | ≤ 50 | 
30 | {CH2CO}-E[hCys]RGD[Orn](COCH2)F[hCys]AKKK (thioether 2-6, N-8) [Cyclic peptide 47] | < 50 |  | 
31 | {CH2CO}-I[hCys]RGDK(COCH2)FA[hCys]KKK (thioether 2-6, N-9) [Cyclic peptide 34] |  |  | dissociation constant [1]: 50 to 100 nM
32 | {CH2CO}-I[hCys]RGDK(COCH2)F[hCys]KKK (thioether 2-6, N-8) [Cyclic peptide 11] |  | < 50 | 
33 | {CH2CO}-D[Orn]RGD[hCys]F[hCys]KKK (thioether N-8; bridge 2-6; not fully specified (residue 2, bridges)) [Cyclic peptide 39] | < 50 |  | 
34 | {CH2CO}-V[hCys]RGDK(COCH2)F[hCys]KKK (thioether 2-6, N-8) [Cyclic peptide 28] | < 50 |  | 
35 | {CH2CO}-V[hCys]RGD[Orn](COCH2)F[hCys]KKK (thioether 2-6, N-8) [Cyclic peptide 41] |  |  | dissociation constant [1]: 50 to 100 nM
36 | {CH2CO}-V[Orn](COCH2)RGD[hCys]F[hCys]KKK (thioether 2-6, N-8) [Cyclic peptide 38] | < 50 |  | 
37 | {CH2CO}-I[Orn](COCH2)RGD[hCys]FCKKK (thioether 2-6 via Ac; thioether N-8; not fully specified, bicyclic; all residues L; immobilised on CM5 chip through amino groups) [Cyclic peptide 15] |  | ≤ 50 | 
38 | {CH2CO}-E[hCys]RGDK(COCH2)F[hCys]KKK (thioether 2-6, N-8) [Cyclic peptide 30] | < 50 |  | 
39 | {CH2CO}-KCRGDCFCKKK (disulfide 2-6; thioether N-8, bicyclic comparative peptide; all residues L; immobilised on CM5 chip through amino groups) [Cyclic peptide 48] | ≤ 50 |  | 
40 | {CH2CO}-ICRGD[Dab](COCH2)FCKKK (thioether 2-6 via Ac; thioether N-8, bicyclic; all residues L; immobilised on CM5 chip through amino groups) [Cyclic peptide 8] |  | ≤ 50 | 
